{"source": "patent US20180155451A1", "about": "(published 2018)", "target": "T1, FcγRIIIa extracellular domain with C-terminal His tag (human, UniProt P08637 17-208)", "T1 construct": "extracellular domain; also called FcgRIIIa; 3a", "T1 sequence (P08637 17-208)": "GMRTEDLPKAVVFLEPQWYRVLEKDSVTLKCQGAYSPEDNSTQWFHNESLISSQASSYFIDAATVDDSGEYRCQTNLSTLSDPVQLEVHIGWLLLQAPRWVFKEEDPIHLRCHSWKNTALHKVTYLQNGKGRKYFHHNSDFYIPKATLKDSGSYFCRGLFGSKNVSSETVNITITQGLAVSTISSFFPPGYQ", "assay": "SPR, relative to GpH7-A5/GpH7-B3/GpL16-k0"}
{"binder": "GpH7-A5/GpH7-B3 variant I332_13S/GpL16-k0 (antibody, human IgG1, kappa, heterodimerized IgG1, mutation in one H chain only; also called He Ab) heavy 1: not shown heavy 2: not shown light: DIVMTQSPLSLPVTPGEPASISCQASESLVHSNRNTYLHWYLQKPGQSPQLLIYKVSNRFSGVPDRFSGSGSGTDFTLKISRVEAEDVGVYYCSQNTHVPPTFGQGTKVEIERTVAAPSVFIFPPSDEQLKSGTASVVCLLNNFYPREAKVQWKVDNALQSGNSQESVTEQDSKDSTYSLSSTLTLSKADYEKHKVYACEVTHQGLSSPVTKSFNRGEC", "values": [{"measurement": "He/Con_3a", "value": "104 % of control (=100)"}]}
{"binder": "GpH7-A5/GpH7-B3 variant K326_06M/GpL16-k0 (antibody, human IgG1, kappa, heterodimerized IgG1, mutation in one H chain only; also called He Ab) heavy 1: not shown heavy 2: not shown light: DIVMTQSPLSLPVTPGEPASISCQASESLVHSNRNTYLHWYLQKPGQSPQLLIYKVSNRFSGVPDRFSGSGSGTDFTLKISRVEAEDVGVYYCSQNTHVPPTFGQGTKVEIERTVAAPSVFIFPPSDEQLKSGTASVVCLLNNFYPREAKVQWKVDNALQSGNSQESVTEQDSKDSTYSLSSTLTLSKADYEKHKVYACEVTHQGLSSPVTKSFNRGEC", "values": [{"measurement": "He/Con_3a", "value": "115 % of control (=100)"}]}
{"binder": "GpH7-A5/GpH7-B3 variant I336_02A/GpL16-k0 (antibody, human IgG1, kappa, heterodimerized IgG1, mutation in one H chain only; also called He Ab) heavy 1: not shown heavy 2: not shown light: DIVMTQSPLSLPVTPGEPASISCQASESLVHSNRNTYLHWYLQKPGQSPQLLIYKVSNRFSGVPDRFSGSGSGTDFTLKISRVEAEDVGVYYCSQNTHVPPTFGQGTKVEIERTVAAPSVFIFPPSDEQLKSGTASVVCLLNNFYPREAKVQWKVDNALQSGNSQESVTEQDSKDSTYSLSSTLTLSKADYEKHKVYACEVTHQGLSSPVTKSFNRGEC", "values": [{"measurement": "He/Con_3a", "value": "111 % of control (=100)"}]}
{"binder": "GpH7-A5/GpH7-B3 variant I336_03V/GpL16-k0 (antibody, human IgG1, kappa, heterodimerized IgG1, mutation in one H chain only; also called He Ab) heavy 1: not shown heavy 2: not shown light: DIVMTQSPLSLPVTPGEPASISCQASESLVHSNRNTYLHWYLQKPGQSPQLLIYKVSNRFSGVPDRFSGSGSGTDFTLKISRVEAEDVGVYYCSQNTHVPPTFGQGTKVEIERTVAAPSVFIFPPSDEQLKSGTASVVCLLNNFYPREAKVQWKVDNALQSGNSQESVTEQDSKDSTYSLSSTLTLSKADYEKHKVYACEVTHQGLSSPVTKSFNRGEC", "values": [{"measurement": "He/Con_3a", "value": "112 % of control (=100)"}]}
{"binder": "GpH7-A5/GpH7-B3 variant I336_18N/GpL16-k0 (antibody, human IgG1, kappa, heterodimerized IgG1, mutation in one H chain only; also called He Ab) heavy 1: not shown heavy 2: not shown light: DIVMTQSPLSLPVTPGEPASISCQASESLVHSNRNTYLHWYLQKPGQSPQLLIYKVSNRFSGVPDRFSGSGSGTDFTLKISRVEAEDVGVYYCSQNTHVPPTFGQGTKVEIERTVAAPSVFIFPPSDEQLKSGTASVVCLLNNFYPREAKVQWKVDNALQSGNSQESVTEQDSKDSTYSLSSTLTLSKADYEKHKVYACEVTHQGLSSPVTKSFNRGEC", "values": [{"measurement": "He/Con_3a", "value": "104 % of control (=100)"}]}
{"binder": "GpH7-A5/GpH7-B3 variant K326_03V/GpL16-k0 (antibody, human IgG1, kappa, heterodimerized IgG1, mutation in one H chain only; also called He Ab) heavy 1: not shown heavy 2: not shown light: DIVMTQSPLSLPVTPGEPASISCQASESLVHSNRNTYLHWYLQKPGQSPQLLIYKVSNRFSGVPDRFSGSGSGTDFTLKISRVEAEDVGVYYCSQNTHVPPTFGQGTKVEIERTVAAPSVFIFPPSDEQLKSGTASVVCLLNNFYPREAKVQWKVDNALQSGNSQESVTEQDSKDSTYSLSSTLTLSKADYEKHKVYACEVTHQGLSSPVTKSFNRGEC", "values": [{"measurement": "He/Con_3a", "value": "122 % of control (=100)"}]}
{"binder": "GpH7-A5/GpH7-B3 variant I332_19Q/GpL16-k0 (antibody, human IgG1, kappa, heterodimerized IgG1, mutation in one H chain only; also called He Ab) heavy 1: not shown heavy 2: not shown light: DIVMTQSPLSLPVTPGEPASISCQASESLVHSNRNTYLHWYLQKPGQSPQLLIYKVSNRFSGVPDRFSGSGSGTDFTLKISRVEAEDVGVYYCSQNTHVPPTFGQGTKVEIERTVAAPSVFIFPPSDEQLKSGTASVVCLLNNFYPREAKVQWKVDNALQSGNSQESVTEQDSKDSTYSLSSTLTLSKADYEKHKVYACEVTHQGLSSPVTKSFNRGEC", "values": [{"measurement": "He/Con_3a", "value": "110 % of control (=100)"}]}
{"binder": "GpH7-A5/GpH7-B3 variant I332_14T/GpL16-k0 (antibody, human IgG1, kappa, heterodimerized IgG1, mutation in one H chain only; also called He Ab) heavy 1: not shown heavy 2: not shown light: DIVMTQSPLSLPVTPGEPASISCQASESLVHSNRNTYLHWYLQKPGQSPQLLIYKVSNRFSGVPDRFSGSGSGTDFTLKISRVEAEDVGVYYCSQNTHVPPTFGQGTKVEIERTVAAPSVFIFPPSDEQLKSGTASVVCLLNNFYPREAKVQWKVDNALQSGNSQESVTEQDSKDSTYSLSSTLTLSKADYEKHKVYACEVTHQGLSSPVTKSFNRGEC", "values": [{"measurement": "He/Con_3a", "value": "120 % of control (=100)"}]}
{"binder": "GpH7-A5/GpH7-B3 variant I336_06M/GpL16-k0 (antibody, human IgG1, kappa, heterodimerized IgG1, mutation in one H chain only; also called He Ab) heavy 1: not shown heavy 2: not shown light: DIVMTQSPLSLPVTPGEPASISCQASESLVHSNRNTYLHWYLQKPGQSPQLLIYKVSNRFSGVPDRFSGSGSGTDFTLKISRVEAEDVGVYYCSQNTHVPPTFGQGTKVEIERTVAAPSVFIFPPSDEQLKSGTASVVCLLNNFYPREAKVQWKVDNALQSGNSQESVTEQDSKDSTYSLSSTLTLSKADYEKHKVYACEVTHQGLSSPVTKSFNRGEC", "values": [{"measurement": "He/Con_3a", "value": "109 % of control (=100)"}]}
{"binder": "GpH7-A5/GpH7-B3 variant I332_15Y/GpL16-k0 (antibody, human IgG1, kappa, heterodimerized IgG1, mutation in one H chain only; also called He Ab) heavy 1: not shown heavy 2: not shown light: DIVMTQSPLSLPVTPGEPASISCQASESLVHSNRNTYLHWYLQKPGQSPQLLIYKVSNRFSGVPDRFSGSGSGTDFTLKISRVEAEDVGVYYCSQNTHVPPTFGQGTKVEIERTVAAPSVFIFPPSDEQLKSGTASVVCLLNNFYPREAKVQWKVDNALQSGNSQESVTEQDSKDSTYSLSSTLTLSKADYEKHKVYACEVTHQGLSSPVTKSFNRGEC", "values": [{"measurement": "He/Con_3a", "value": "101 % of control (=100)"}]}
{"binder": "GpH7-A5/GpH7-B3 variant K326_04F/GpL16-k0 (antibody, human IgG1, kappa, heterodimerized IgG1, mutation in one H chain only; also called He Ab) heavy 1: not shown heavy 2: not shown light: DIVMTQSPLSLPVTPGEPASISCQASESLVHSNRNTYLHWYLQKPGQSPQLLIYKVSNRFSGVPDRFSGSGSGTDFTLKISRVEAEDVGVYYCSQNTHVPPTFGQGTKVEIERTVAAPSVFIFPPSDEQLKSGTASVVCLLNNFYPREAKVQWKVDNALQSGNSQESVTEQDSKDSTYSLSSTLTLSKADYEKHKVYACEVTHQGLSSPVTKSFNRGEC", "values": [{"measurement": "He/Con_3a", "value": "103 % of control (=100)"}]}
{"binder": "GpH7-A5/GpH7-B3 variant K326_07I/GpL16-k0 (antibody, human IgG1, kappa, heterodimerized IgG1, mutation in one H chain only; also called He Ab) heavy 1: not shown heavy 2: not shown light: DIVMTQSPLSLPVTPGEPASISCQASESLVHSNRNTYLHWYLQKPGQSPQLLIYKVSNRFSGVPDRFSGSGSGTDFTLKISRVEAEDVGVYYCSQNTHVPPTFGQGTKVEIERTVAAPSVFIFPPSDEQLKSGTASVVCLLNNFYPREAKVQWKVDNALQSGNSQESVTEQDSKDSTYSLSSTLTLSKADYEKHKVYACEVTHQGLSSPVTKSFNRGEC", "values": [{"measurement": "He/Con_3a", "value": "139 % of control (=100)"}]}
{"binder": "GpH7-A5/GpH7-B3 variant I336_14T/GpL16-k0 (antibody, human IgG1, kappa, heterodimerized IgG1, mutation in one H chain only; also called He Ab) heavy 1: not shown heavy 2: not shown light: DIVMTQSPLSLPVTPGEPASISCQASESLVHSNRNTYLHWYLQKPGQSPQLLIYKVSNRFSGVPDRFSGSGSGTDFTLKISRVEAEDVGVYYCSQNTHVPPTFGQGTKVEIERTVAAPSVFIFPPSDEQLKSGTASVVCLLNNFYPREAKVQWKVDNALQSGNSQESVTEQDSKDSTYSLSSTLTLSKADYEKHKVYACEVTHQGLSSPVTKSFNRGEC", "values": [{"measurement": "He/Con_3a", "value": "108 % of control (=100)"}]}
{"binder": "GpH7-A5/GpH7-B3 variant I336_10E/GpL16-k0 (antibody, human IgG1, kappa, heterodimerized IgG1, mutation in one H chain only; also called He Ab) heavy 1: not shown heavy 2: not shown light: DIVMTQSPLSLPVTPGEPASISCQASESLVHSNRNTYLHWYLQKPGQSPQLLIYKVSNRFSGVPDRFSGSGSGTDFTLKISRVEAEDVGVYYCSQNTHVPPTFGQGTKVEIERTVAAPSVFIFPPSDEQLKSGTASVVCLLNNFYPREAKVQWKVDNALQSGNSQESVTEQDSKDSTYSLSSTLTLSKADYEKHKVYACEVTHQGLSSPVTKSFNRGEC", "values": [{"measurement": "He/Con_3a", "value": "119 % of control (=100)"}]}
{"binder": "GpH7-A5/GpH7-B3 variant I336_13S/GpL16-k0 (antibody, human IgG1, kappa, heterodimerized IgG1, mutation in one H chain only; also called He Ab) heavy 1: not shown heavy 2: not shown light: DIVMTQSPLSLPVTPGEPASISCQASESLVHSNRNTYLHWYLQKPGQSPQLLIYKVSNRFSGVPDRFSGSGSGTDFTLKISRVEAEDVGVYYCSQNTHVPPTFGQGTKVEIERTVAAPSVFIFPPSDEQLKSGTASVVCLLNNFYPREAKVQWKVDNALQSGNSQESVTEQDSKDSTYSLSSTLTLSKADYEKHKVYACEVTHQGLSSPVTKSFNRGEC", "values": [{"measurement": "He/Con_3a", "value": "102 % of control (=100)"}]}
{"binder": "GpH7-A5/GpH7-B3 variant I336_09D/GpL16-k0 (antibody, human IgG1, kappa, heterodimerized IgG1, mutation in one H chain only; also called He Ab) heavy 1: not shown heavy 2: not shown light: DIVMTQSPLSLPVTPGEPASISCQASESLVHSNRNTYLHWYLQKPGQSPQLLIYKVSNRFSGVPDRFSGSGSGTDFTLKISRVEAEDVGVYYCSQNTHVPPTFGQGTKVEIERTVAAPSVFIFPPSDEQLKSGTASVVCLLNNFYPREAKVQWKVDNALQSGNSQESVTEQDSKDSTYSLSSTLTLSKADYEKHKVYACEVTHQGLSSPVTKSFNRGEC", "values": [{"measurement": "He/Con_3a", "value": "106 % of control (=100)"}]}
